{
  "source": "paper PMC9482650",
  "about": "“Quantitative fragmentomics allow affinity mapping of interactomes” (Nature Communications, 2022)",
  "assay_in_all_cases": "holdup assay",
  "parameters_in_all_cases": "key: below the threshold = too weak to quantify, mostly under pKd 3.1 to 4",
  "settings_in_all_cases": "plain residues with an end cap or a label only (N-terminal biotin on a linker: ado-ado)",
  "key": {"AHNAK1, Q09666": {"target": "AHNAK1, Q09666", "sequence (Q09666 4-100)": "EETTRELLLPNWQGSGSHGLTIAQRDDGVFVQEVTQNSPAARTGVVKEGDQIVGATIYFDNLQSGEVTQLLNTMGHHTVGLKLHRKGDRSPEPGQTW"}, "APBA1_1, Q02410": {"target": "T1, APBA1_1, Q02410", "T1 sequence (Q02410 651-752, limits assumed, looked up)": "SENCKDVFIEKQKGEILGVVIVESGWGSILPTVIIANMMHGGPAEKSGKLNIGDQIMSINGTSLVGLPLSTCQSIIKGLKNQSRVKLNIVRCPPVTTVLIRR"}, "DLG1_1, Q12959": {"target": "DLG1_1, Q12959"}, "DLG1_3, Q12959": {"target": "DLG1_3, Q12959"}, "DLG2_2, Q15700": {"target": "DLG2_2, Q15700"}, "DLG2_3, Q15700": {"target": "DLG2_3, Q15700"}, "GIPC2, Q8TF65": {"target": "GIPC2, Q8TF65", "sequence (Q8TF65 112-203)": "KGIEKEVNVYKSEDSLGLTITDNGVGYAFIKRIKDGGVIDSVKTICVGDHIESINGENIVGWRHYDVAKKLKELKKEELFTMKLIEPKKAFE"}, "GOPC, Q9HD26": {"target": "GOPC, Q9HD26"}, "GORASP2, Q9H8Y8": {"target": "GORASP2, Q9H8Y8"}, "GRID2IP_1, A4D2P6": {"target": "GRID2IP_1, A4D2P6", "sequence (A4D2P6 1-87)": "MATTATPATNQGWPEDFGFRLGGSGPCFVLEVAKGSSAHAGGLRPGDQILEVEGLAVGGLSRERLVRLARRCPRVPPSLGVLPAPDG"}, "GRIP1_2, Q9Y3R0": {"target": "T2, GRIP1_2, Q9Y3R0", "T2 sequence (Q9Y3R0 145-248, limits assumed, looked up)": "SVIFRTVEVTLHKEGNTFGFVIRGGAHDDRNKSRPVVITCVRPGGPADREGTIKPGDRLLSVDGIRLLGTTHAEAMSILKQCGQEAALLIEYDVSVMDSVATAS"}, "GRIP1_3, Q9Y3R0": {"target": "T3, GRIP1_3, Q9Y3R0", "T3 sequence (Q9Y3R0 247-346, limits assumed, looked up)": "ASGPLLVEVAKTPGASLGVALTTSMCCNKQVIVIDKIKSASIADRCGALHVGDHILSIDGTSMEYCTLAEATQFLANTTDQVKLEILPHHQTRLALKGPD"}, "GRIP1_7, Q9Y3R0": {"target": "T4, GRIP1_7, Q9Y3R0", "T4 sequence (Q9Y3R0 999-1096, limits assumed, looked up)": "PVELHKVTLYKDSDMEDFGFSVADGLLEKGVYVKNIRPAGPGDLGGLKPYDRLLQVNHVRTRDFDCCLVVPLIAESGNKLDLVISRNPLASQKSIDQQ"}, "GRIP2_7, Q9C0E4": {"target": "GRIP2_7, Q9C0E4", "sequence (Q9C0E4 934-1023)": "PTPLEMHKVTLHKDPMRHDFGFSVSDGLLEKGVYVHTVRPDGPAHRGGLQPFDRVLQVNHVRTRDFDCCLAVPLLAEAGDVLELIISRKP"}, "Inadl_1, Q8NI35": {"target": "Inadl_1, Q8NI35", "sequence (Q8NI35 113-229)": "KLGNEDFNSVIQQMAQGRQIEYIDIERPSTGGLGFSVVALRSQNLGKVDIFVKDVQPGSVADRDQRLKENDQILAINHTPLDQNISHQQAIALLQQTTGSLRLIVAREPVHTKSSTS"}, "LDB3, O75112": {"target": "LDB3, O75112", "sequence (O75112 1-94)": "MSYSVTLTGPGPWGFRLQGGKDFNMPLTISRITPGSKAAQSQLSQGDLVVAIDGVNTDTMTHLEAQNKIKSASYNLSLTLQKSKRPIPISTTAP"}, "LIN7A, O14910": {"target": "T5, LIN7A, O14910", "T5 sequence (O14910 103-200, limits assumed, looked up)": "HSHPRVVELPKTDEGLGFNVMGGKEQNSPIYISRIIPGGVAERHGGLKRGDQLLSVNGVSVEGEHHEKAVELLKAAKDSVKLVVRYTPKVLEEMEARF"}, "MAGI2_2, Q86UL8": {"target": "MAGI2_2, Q86UL8", "sequence (Q86UL8 410-522)": "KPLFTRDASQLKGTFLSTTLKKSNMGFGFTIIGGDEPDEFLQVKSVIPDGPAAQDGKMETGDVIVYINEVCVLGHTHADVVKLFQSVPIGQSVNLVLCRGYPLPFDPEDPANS"}, "MAGI2_3, Q86UL8": {"target": "MAGI2_3, Q86UL8", "sequence (Q86UL8 600-682)": "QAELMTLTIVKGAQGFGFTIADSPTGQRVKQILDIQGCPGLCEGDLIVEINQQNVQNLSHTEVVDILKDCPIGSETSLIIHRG"}, "MPDZ_10, O75970": {"target": "T6, MPDZ_10, O75970", "T6 sequence (O75970 1624-1722, limits assumed, looked up)": "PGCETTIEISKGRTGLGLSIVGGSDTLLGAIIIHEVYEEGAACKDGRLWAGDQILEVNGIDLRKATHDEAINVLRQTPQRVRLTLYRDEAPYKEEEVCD"}, "NHERF3_1, Q5T2W1": {"target": "T7, NHERF3_1, Q5T2W1", "T7 sequence (Q5T2W1 4-100, limits assumed, looked up)": "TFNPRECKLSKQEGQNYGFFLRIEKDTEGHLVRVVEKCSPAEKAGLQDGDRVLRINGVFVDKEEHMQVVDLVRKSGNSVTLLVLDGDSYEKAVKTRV"}, "NHERF4_4, Q86UT5": {"target": "NHERF4_4, Q86UT5", "sequence (Q86UT5 464-550)": "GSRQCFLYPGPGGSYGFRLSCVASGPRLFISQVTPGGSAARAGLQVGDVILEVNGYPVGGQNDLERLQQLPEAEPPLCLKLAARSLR"}, "PCLO, Q9Y6V0": {"target": "T8, PCLO, Q9Y6V0", "T8 sequence (Q9Y6V0 4491-4600, limits assumed, looked up)": "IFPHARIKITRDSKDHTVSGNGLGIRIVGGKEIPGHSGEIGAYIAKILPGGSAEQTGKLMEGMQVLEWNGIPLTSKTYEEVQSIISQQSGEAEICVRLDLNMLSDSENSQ"}, "RADIL, Q96JH8": {"target": "T9, RADIL, Q96JH8", "T9 sequence (Q96JH8 971-1071, limits assumed, looked up)": "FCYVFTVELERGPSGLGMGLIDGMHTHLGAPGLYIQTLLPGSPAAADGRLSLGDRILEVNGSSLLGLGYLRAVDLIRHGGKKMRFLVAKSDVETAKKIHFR"}, "SCRIB_3, Q14160": {"target": "SCRIB_3, Q14160", "sequence (Q14160 999-1103)": "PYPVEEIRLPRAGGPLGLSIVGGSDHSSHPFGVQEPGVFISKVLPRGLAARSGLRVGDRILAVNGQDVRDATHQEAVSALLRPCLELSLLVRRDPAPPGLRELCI"}, "TIAM2, Q8IVF5": {"target": "T10, TIAM2, Q8IVF5", "T10 sequence (Q8IVF5 885-986, limits assumed, looked up)": "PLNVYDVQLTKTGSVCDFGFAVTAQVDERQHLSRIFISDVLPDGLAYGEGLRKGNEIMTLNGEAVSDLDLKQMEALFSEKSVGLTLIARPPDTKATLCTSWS"}, "TJP1_2, Q07157": {"target": "TJP1_2, Q07157", "sequence (Q07157 181-274)": "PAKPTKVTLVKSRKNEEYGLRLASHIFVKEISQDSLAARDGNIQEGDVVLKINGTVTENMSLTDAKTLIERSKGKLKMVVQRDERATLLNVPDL"}, "TJP1_3, Q07157": {"target": "TJP1_3, Q07157", "sequence (Q07157 416-512)": "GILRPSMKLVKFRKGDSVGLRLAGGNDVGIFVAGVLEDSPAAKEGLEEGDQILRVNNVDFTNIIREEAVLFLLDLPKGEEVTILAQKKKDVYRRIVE"}},
  "data": [
    {"binder": "VLYPREGTEV", "note": "[FOXI1, Q12951]", "values": [
      {"measurement": "pKd", "setting": "AHNAK1, Q09666", "result": "below the threshold"},
      {"measurement": "pKd", "setting": "APBA1_1, Q02410", "result": "below the threshold"},
      {"measurement": "pKd", "setting": "DLG1_1, Q12959", "result": 4.4},
      {"measurement": "pKd", "setting": "DLG1_3, Q12959", "result": 3.75},
      {"measurement": "pKd", "setting": "DLG2_2, Q15700", "result": 4.45},
      {"measurement": "pKd", "setting": "DLG2_3, Q15700", "result": 3.9},
      {"measurement": "pKd", "setting": "GIPC2, Q8TF65", "result": 3.49},
      {"measurement": "pKd", "setting": "GOPC, Q9HD26", "result": 3.52},
      {"measurement": "pKd", "setting": "GORASP2, Q9H8Y8", "result": "below the threshold"},
      {"measurement": "pKd", "setting": "GRID2IP_1, A4D2P6", "result": "below the threshold"},
      {"measurement": "pKd", "setting": "GRIP1_2, Q9Y3R0", "result": "below the threshold"},
      {"measurement": "pKd", "setting": "GRIP1_3, Q9Y3R0", "result": "below the threshold"},
      {"measurement": "pKd", "setting": "GRIP1_7, Q9Y3R0", "result": "below the threshold"},
      {"measurement": "pKd", "setting": "GRIP2_7, Q9C0E4", "result": "below the threshold"},
      {"measurement": "pKd", "setting": "Inadl_1, Q8NI35", "result": "below the threshold"},
      {"measurement": "pKd", "setting": "LDB3, O75112", "result": "below the threshold"},
      {"measurement": "pKd", "setting": "LIN7A, O14910", "result": "below the threshold"},
      {"measurement": "pKd", "setting": "MAGI2_2, Q86UL8", "result": 3.74},
      {"measurement": "pKd", "setting": "MAGI2_3, Q86UL8", "result": "below the threshold"},
      {"measurement": "pKd", "setting": "MPDZ_10, O75970", "result": 3.49},
      {"measurement": "pKd", "setting": "NHERF3_1, Q5T2W1", "result": 3.7},
      {"measurement": "pKd", "setting": "NHERF4_4, Q86UT5", "result": "below the threshold"},
      {"measurement": "pKd", "setting": "PCLO, Q9Y6V0", "result": "below the threshold"},
      {"measurement": "pKd", "setting": "RADIL, Q96JH8", "result": 3.74},
      {"measurement": "pKd", "setting": "SCRIB_3, Q14160", "result": 4.36},
      {"measurement": "pKd", "setting": "TIAM2, Q8IVF5", "result": "below the threshold"},
      {"measurement": "pKd", "setting": "TJP1_2, Q07157", "result": "below the threshold"},
      {"measurement": "pKd", "setting": "TJP1_3, Q07157", "result": "below the threshold"}
    ]},
    {"binder": "MHIQEKGFHV", "note": "[EPHA6, Q9UF33]", "values": [
      {"measurement": "pKd", "setting": "AHNAK1, Q09666", "result": "below the threshold"},
      {"measurement": "pKd", "setting": "APBA1_1, Q02410", "result": "below the threshold"},
      {"measurement": "pKd", "setting": "DLG1_1, Q12959", "result": "below the threshold"},
      {"measurement": "pKd", "setting": "DLG1_3, Q12959", "result": "below the threshold"},
      {"measurement": "pKd", "setting": "DLG2_2, Q15700", "result": "below the threshold"},
      {"measurement": "pKd", "setting": "DLG2_3, Q15700", "result": "below the threshold"},
      {"measurement": "pKd", "setting": "GIPC2, Q8TF65", "result": "below the threshold"},
      {"measurement": "pKd", "setting": "GOPC, Q9HD26", "result": "below the threshold"},
      {"measurement": "pKd", "setting": "GORASP2, Q9H8Y8", "result": 3.62},
      {"measurement": "pKd", "setting": "GRID2IP_1, A4D2P6", "result": "below the threshold"},
      {"measurement": "pKd", "setting": "GRIP1_2, Q9Y3R0", "result": "below the threshold"},
      {"measurement": "pKd", "setting": "GRIP1_3, Q9Y3R0", "result": "below the threshold"},
      {"measurement": "pKd", "setting": "GRIP1_7, Q9Y3R0", "result": "below the threshold"},
      {"measurement": "pKd", "setting": "GRIP2_7, Q9C0E4", "result": 3.93},
      {"measurement": "pKd", "setting": "Inadl_1, Q8NI35", "result": "below the threshold"},
      {"measurement": "pKd", "setting": "LDB3, O75112", "result": "below the threshold"},
      {"measurement": "pKd", "setting": "LIN7A, O14910", "result": "below the threshold"},
      {"measurement": "pKd", "setting": "MAGI2_2, Q86UL8", "result": "below the threshold"},
      {"measurement": "pKd", "setting": "MAGI2_3, Q86UL8", "result": "below the threshold"},
      {"measurement": "pKd", "setting": "MPDZ_10, O75970", "result": "below the threshold"},
      {"measurement": "pKd", "setting": "NHERF3_1, Q5T2W1", "result": 3.71},
      {"measurement": "pKd", "setting": "NHERF4_4, Q86UT5", "result": "below the threshold"},
      {"measurement": "pKd", "setting": "PCLO, Q9Y6V0", "result": "below the threshold"},
      {"measurement": "pKd", "setting": "RADIL, Q96JH8", "result": 3.98},
      {"measurement": "pKd", "setting": "SCRIB_3, Q14160", "result": "below the threshold"},
      {"measurement": "pKd", "setting": "TIAM2, Q8IVF5", "result": "below the threshold"},
      {"measurement": "pKd", "setting": "TJP1_2, Q07157", "result": 3.52},
      {"measurement": "pKd", "setting": "TJP1_3, Q07157", "result": "below the threshold"}
    ]}
  ]
}
